Results published in PMC9459147, “Targeting the Cbl-b-Notch1 axis as a novel immunotherapeutic strategy to boost CD8+ T-cell responses” (Frontiers in Immunology, 2022).

Biological target: T1, UBE2D2(C85K)-Ub-FL-BODIPY (human | , UniProt P62837 1-147; P0CG48 1-76, C85K, ubiquitinated in vitro; BODIPY labelled in vitro (position not given))
T1 construct: UBE2D2 ubiquitin-conjugating enzyme, human, with C85K; ubiquitin, conjugated in vitro to UBE2D2(C85K); also called UBE2D2(C85K), ubiquitinated and BODIPY labelled; source: E. coli, purified, ubiquitinated and BODIPY labelled in vitro
Test: AlphaScreen or HTRF; TR-FRET: biotinylated Cbl-b (36-427) with Src-Zap-70 fusion and ATP (enzyme reaction), UBE2D2(C85K)-Ub-FL-BODIPY and Streptavidin-Tb (binding reaction); signal at 520 nm, reference at 620 nm; used to titrate small-molecule Cbl-b inhibitors (NTX-512, NTX-447, NTX-307)
Details: both partners purified

B1: recombinant human Cbl-b (aa 36-427), biotinylated (domain or fragment, UniProt Q13191 36-427, looked up)
chain: PKQAAADRRTVEKTWKLMDKVVRLCQNPKLQLKNSPPYILDILPDTYQHLRLILSKYDDNQKLAQLSENEYFKIYIDSLMKKSKRAIRLFKEGKERMYEEQSQDRRNLTKLSLIFSHMLAEIKAIFPNGQFQGDNFRITKADAAEFWRKFFGDKTIVPWKVFRQCLHEVHQISSGLEAMALKSTIDLTCNDYISVFEFDIFTRLFQPWGSILRNWNFLAVTHPGYMAFLTYDEVKARLQKYSTKPGSYIFRLSCTRLGQWAIGYVTGDGNILQTIPHNKPLFQALIDGSREGFYLYPDGRSYNPDLTGLCEPTPHDHIKVTQEQYELYCEMGSTFQLCKICAENDKDVKIEPCGHLMCTSCLTAWQESDGQGCPFCRCEIKGTEPIIVDPFD
modifications: biotinylated in vitro (position not given)
notes: Cbl-b, human, residues 36-427; In the assay it was mixed with a recombinant human Src (aa 254-536)-Zap-70 (aa 281-297) fusion protein and ATP ('enzyme reaction'); Detected through Streptavidin-Tb; also called Cbl-b enzyme; source: E. coli, purified and biotinylated in vitro
- binding result: binds
